Experimental data reported in the DeepSol protein solubility set.

test: soluble on expression in E. coli; label from the status in PepcDB or PDB records

Sequence | soluble on expression in E. coli
MTDNNTALKKAGLKVTLPRLKILEVLQEPDNHHVSAEDLYKRLIDMGEEIGLATVYRVLNQFDDAGIVTRHNFEGGKSVFELTQQHHHDHLICLDCGKVIEFSDDSIEARQREIAAKHGIRLTNHSLYLYGHCAEGDCREDEHAHEGK | soluble
MTDSQSTQMGRGRHAKRNKSTASVGSKKNRTQSTASGKFQPSDGFTTFIVAVSRLGKQGQEFTWHDLRKVYHKETQRQLTAEELNAIFSSKNLTKREIFELPKVKRFMTSMDGSMMCRFRLIADPQEVYDDDLPPLMSTSVETDVITEDTSSDHSQAVSPSSGNPIAISTDCDDKAAGPTSDLSKSDNSPSQRSLAQQSSMTDDEGWVSGKDVRSENSSPVEDKDEVDGSKMEMEDDVFEEDQRIAAESDQVDSAMVADVIIVEEAKVEKLFKAQEIVAPIVLTESIDAAFEAVIQSVSHADATLSMTQNASEEAKVHATPPLPAERKTMVSAELANGKPIKHLIEKFDAGVNFAEHKPKSIYAQVLEEIGGSAPRVDEVFSASKKEEHAETEVTNVIFRSTSTHSSIIANGKEQLAEFVAEQEARQKVTTPNPVKEETENAFCAKEQSSMSSLDREYFASKTKLNEDLFAELGVKDTDGFQLKTVDSNGSGPGSSEIITVIETPLKDDHRKRADSVESDADVPYSLCSEDEAEPMTMIDKSMKVSQSAEQLSPVKEEQKAKTVVVNVELDGNRADPTIKDRIAALQAIVSKQHVPIAKVDSVDDDVRILSRTEELQHMALEAKPSPQALGALRRRHVRFMRGCCVVQ | soluble
MTEFELPPKYITAANDLRSDTFTTPTAEMMEAALEASIGDAVYGEDVDTVRLEQTVARMAGKEAGLFCVSGTLSNQIAIRTHLMQPPYSILCDYRAHVYTHEAAGLAILSQAMVVPVVPSNGDYLTLEDIKSHYVPDDGDIHGAPTRLISLENTLHGIVYPLEELVRIKAWCMENGLKLHCDGARIWNAAAQSGVPLKQYGEIFDSISICLSKSMGAPIGSVLVGNLKFVKKATHFRKQQGGGIRQSGMMARIALVNINNDWKSQLLYSHSLAHELAEYCEAKGIPLESPADTNFVFINLKAARMDPDVLVKKGLKYNVKLMGGRVSFHYQVTRDTLEKVKLAISEAFDYAKEHPFDCNGPTQIYRSESTEVDVDGNAIREIKTYKY | soluble
MTEIVERMKKKNIVKPIVYGNTATPFGYKRDSDQHTHQWTVFLKPYLIEDPTKWIRKVQFKLHESYAVPYRVVEKPPYEVTETGWGEFEIQIRIYFVDPNEKPITAFHYLRLFQPTIELPSGNQIVCMEFYDEIIFQEPTVQMYKALQASDGKRPDKQAFLNDIEQVKTRTRELGEVAQKEIAAEIEDLRESLKDAHKMIVKYNTELAEQE | not soluble
MTEKQFKLTVQDNTNIEVKVNFTDVDSKGIIHIFHGMAEHMERYDKLAHALSKHGFDVIRHNHRGHGINIDESTRGHYDDMKRVIGDAFEVAQTVRGNVDKPYIIIGHSMGSVIARLFVETYPQYVDGLILSGTGMYSLWKGLPTVKVLQLITKIYGAEKRVEWVNQLVSNSFNKKIRPLRTQSDWISSNPIEVDNFIKDPYSGFNVSNQLLYQTAYYMLHTSQLKNMKMLNHAMPILLVSGYDDPLGDYGKGILKLANIYRKAGIKNVKVNLYHHKRHEVLFEKDHDKIWEDLFKWLNQFYKK | not soluble
MTENALLLLNLGSPDSTRVEDVRRYLDQFLMDPYVVDLPWPLRRLLVSLILIKRPAESAHAYSSIWWDEGSPLIVLSRRLQEAMKPHWPHGPVELAMRYGQPAIEKVLLDLARRGIRRVTLAPLYPQFADSTTTTAEQEVRRVIAAHRLGLEVSTLPPFYDQPVYLDALVESVRPYLQQPHDHLLLSFHGLPERHIRKLVKDPAHDLLAENSRNVSPEALALCYRSQCLRTAEAFAERAGLEQGRWSVSFQSRLGRAKWIEPYTDAKLDELVQRGVKRLLVMCPAFVADCIETLEEIGMRGREQFISAGGEDLVLIPCLNDHPAWVGALAEMSGRLARPL | not soluble
MTENQNGKVDPVAIRELISQGIPMKRKESEIKRSQSEEQCVESECPNDEPMSKDFSRVSRRERRKSDKGDYESLFICRNTLKNRKTIYIAKELQDTLAEIVMSMRNRDMTIGIYVENIILHHLETYKDEINRLAEMKFRKLL | not soluble
MTEPVHPIADLTDSLLGWASQTELELAQRLAGGGLVIAAGLSDDELERIERLYGIFLTRQLLAGADFAALIGVSPALTLTTLVARARRVVEIDDFVSEFLGGLGLATDESSVIDIDEATAAIMGAIPQSLARFELLGAQEATDALSAIVSLCTQAGIVNNEVPALLEYLDAVNAEGTVSSEDLVAAIAQQENLPLLATALQIAPAAITELIDGVAAVRQFAVDHHDSWFDRSREHLTPLLPRPIEFSVVSELRERPVGTVDREASVGVASREMRPRILFDADRSKVYLRLPEQRLPIADDGTRGEITWRVSIEGTTKIYHTGSPWGDTSGFAESLDVHIERPVRELTVQDETNEITWTVPVLAHDDPALVFSSRGTNVTDKVALHHQSLIVVTPQDVTLTDVVSGDDIVADSETAVEGWDKWVARYLDVSHVTSLSAVEPGKNANMETLRSIDPRQRVRFLAPSEPVDFLKTTGGLPVHSESLIAEFPPTPSGRTE | not soluble
MTGEGYKQAIVVRRDLGMGRGKAAAQAAHASCEAVFLILESGRPEWRRWLEMWRLQGQAKVVLRVESLAELQEVYSKAVEEGLPASFVRDAGKTQLEPGTPTAAAVGPAPSRLVDRITGGLKLF | not soluble
MTGKILVIGSTGTIGTPLVKALVARGESVKAASRSGKPTNGAEGVRFDYTDHATFADAFDGVDRLFLMLAGGRLDTIDALTPVVEEAARRKVKIVFLSVLGVDADDSIPYRQIELKIIASGTPYVILRPNWFADNFHSYWKAGIEHGQIAVPGGEGKSSFIDVRDIADSAAAALTSDAFNGKAFNLTGPQAFGYAEAAALISQAIGKPVSYSAVSDDVFIGILTGAGVPQDYASFLASIFYPVREGWTAVVTGDAETLTGHAPRSLETYIADNLDRLKG | not soluble
MTGLLDGKRILVSGIITDSSIAFHIARVAQEQGAQLVLTGFDRLRLIQRITDRLPAKAPLLELDVQNEEHLASLAGRVTEAIGAGNKLDGVVHSIGFMPQTGMGINPFFDAPYADVSKGIHISAYSYASMAKALLPIMNPGGSIVGMDFDPSRAMPAYNWMTVAKSALESVNRFVAREAGKYGVRSNLVAAGPIRTLAMSAIVGGALGEEAGAQIQLLEEGWDQRAPIGWNMKDATPVAKTVCALLSDWLPATTGDIIYADGGAHTQLL | soluble
MTGPEPVPAGPPPDPTPPRRAGSVWAHVGQHFTEEAFDIVVIGAGRMGAACAFYLRQLAPGRSLLLVEEGGLPNEEGATILAPGVWTAQDIPAGQEAQAEWTREQLLGALGSGKTLEVEDRPLLHLLPAGEGSGLTPTLDALADFPEALALLDPARLPVARVDPRALTYRPGSLALLAAQQAIGQGAGLLLNTRAELVPGGVRLHRLTVTNTHQIVVHETRQIRAGVIIVAAGAAGPALVEQGLGLHTRHGRAYRQFPRLDLLSGAQTPVLRASGLTLRPQNGGYTLVPAIHHRDPHGYHPAGGSLTGVPTGLRRELLEDLVGLMDAVPALAGEGLELGRSSADVPGAWLALPGGRPDAPPQAEELAPGLHLLLGGPLADTLGLAAAHELAQRVSASLEHHHHHH | soluble
MTGRESNRIKDAEKKRVLDSTARQRRARKALEALEQDNYHDDPHADLVMSKKLPKFQDSLKTGKEKKGKRKGAEYFLVKYRKNFQQLLEEDKDKQPNYESAAAPAPQKPLRHFCAVCGNFSLYSCTACGTRYCCVRCLQTHQDTRCLKWTALEHHHHHH | not soluble
MTGRPEDSVIDIYQRHGAAWAKLRGDRLAEGGWLDRFCELLPATASVLDIGCGSGLPIARELVRRGFDVTGVDGASTMLALFRRNLPGTPAHLADMRELALGRRFDGLLAWDSFFHLSPADQRAMFRRFQAHAAAGAALMFTSGPAEGSAIGELAGDRLYHGSLGSDDYRALLDASGFEGVDHIVEDPTCGYRTIWLARQRRLEHHHHHH | not soluble
MTGSDISHILKEGELEKRSDNLLQFWKRKTCVLTTDSLNIYTDQQKKNKSKELKLQSIKKVDCVEHTGKFVYFTIVTTDNKEIDFRCSDEKNCWNAVIAIALVNFQNRKAIQGFKTQKESENTSLGQQERCMARAP | not soluble
MTHEYQDLITIFNDTFLEQFNTTLELGGDEPIYLPADDEHPHHRIIFARGFYASALHEIAHWCVAGPERRLMEDFGYWYEPDGRTEAVQAEFEKVEIRPQAYEWILATSAGFPFTVSCDNLHGDFEPDRLGFMQKVHKEVLGILEAGLPPRVKMLSDALRAFYQTKPLEASDFSVK | not soluble
MTHIAFGHYLHSKRWYTVQVLSKSEDAMSTQLDPTQLAIEFLRRDQSNLSPAQYLKRLKQLELEFADLLTLSSAELKEEIYFAWRLGVH | not soluble
MTIADCDPQISFEKEVYFPGDEVKGRAWVSTTKNLKATSVEITFSGKTITAHNGKKIIKDKKCKKGEETYVEMKHEVWTPEDTENTFPSGDYEWNFSFELPKDCPPSFEGKYGFIRYSVLLHIAVPNGKPINVERAVTVSSMVDLNAVNAHEPAKIHVDNVAEYCHCLPCLPTRGNVIYTLQSPKCGYVAGENVIVSGQIENGTSKPMKIITAKLTRRITYREELKAKANAKKKADGADGFKSKLEEQILETKIERCNVPARSSKDFAFSFDIPAVVSTIRSSRLLAVEYFVTVWGDTGTCNRGGVAALNIIVGNVPLFLGSSSLPPRKFVDGEDAQSWTVDMKPVFTYQVPYYGH | not soluble
MTIEEIARIVEGEILCGNKDLNIERAVATDLMSDVLAFAEPNVLLITGLHSPQAVRTAMVVGIPAVLFVRKRDIPETIVNFAKECNITVLATNLSMFETCGRLYMNGLKPVRRAIE | not soluble
MTILPVKKKREKDSQQRSVSTIGSSAENSRQQLSGPSCSSSASSSSSAAKRIRSQEDGPPSKRWVLSASSTSSTNKSPIPSSSPVLPPPQPEIEPNRSQSPGNADYNSDDEYEMQNIRDDEIETEFSNRLAARGLIIKEMVGDGACMFRSIAEQIYGDQEMHGQIRRLCMDYMSNNRDHFKEFITENFENYIQRKREENVHGNHVELQAISEIKKKSNYILKNSLHSINSEPINVLLPRPEPEATALTDGSASTSNAAPPPSTVPIQQNPPLRLSYHRAVHYNAILAPNIPTIGIGLGLPGMIPGSADKELMSTAMKTSELEHIEETMLQDKIDMTDFQRTQADIEDQITRESLISYLNDFEKSKNAPSTSAGAPGPSNFSGEPPVSGSGLYEEMLAAQSLEWDAYTDDVAIAEAMLVSQQDYMSNKPSTSSSGSGPSTSE | not soluble
MTISGISSDQPFIETIDTLMLGGFPVLSTTPSAFVASLYRSLIEERQQRVFFANTNFIVQCQSLRGRMYSERVCILNDGIGMDLAALFIHGRRFVSNLNGTDLIPYLCQHAPRPLRFFLLGAKPGVADMAAQMLCQLGQLVVGTCDGYAQFVATGEDLVESINASGADVLLVALGNPVQERWILDHDVQLRTPLVFGVGALFDFMSGNVRRAPLWVRRVRGEWLYRLLLEPRRLLKRYSWDLLRFFGVCLLRRREGD | not soluble
MTIWLVTRHPGAIEWVARQGIQWDKHAAHLDPCEITAGDTVIGSLPINLAAEICNRGARYFNLSLNLPAHLRGRELDAATLTACEARLEEYIVKKVNS | not soluble
